Consider 1 molecule from paper PMC7611325 (Molecular cell, 2021).

For the assay, the target named is PAF1c (Polymerase II associated factor 1 complex; CTR9, Leo1, Paf1, CDC73, WDR61) (UniProt Q6PD62;Q8WVC0;Q8N7H5;Q6P1J9;Q9GZS3). Briefly: pull-down.

B1: GST-MYC^1-163 (glutathione-S-transferase fusion protein that encompasses amino acids 1 to 163 of human MYC) (domain or fragment)
chain: MPLNVSFTNRNYDLDYDSVQPYFYCDEEENFYQQQQQSELQPPAPSEDIWKKFELLPTPPLSPSRRSGLCSPSYVAVTPFSLRGDNDGGGGSFSTADQLEMVTELLGGDMVNQSFICDPDDETFIKNIIIQDCMWSGFSAAAKLVSEKLASYQAARKDSGSPN
On to B1, for which the binding result is “binds”.
